Reference: patent publication US20250283065A1, “TRUNCATED POLYPEPTIDES HAVING PROTEIN LIGASE ACTIVITY AND METHODS OF PRODUCTION THEREOF” (NANYANG TECHNOLOGICAL UNIVERSITY, priority 2022, published 2025)

B1: OaAEP1b-C247A-Δ351 with His-tag and TEV cleavage sequence (construct for recombinant expression) (protein)
chain: MHHHHHHSSGVDLGTENLYFQSVGTRWAVLIAGSKGYANYRHQAGVCHAYQILKRGGLKDENIVVFMYDDIAYNESNPRPGVIINSPHGSDVYAGVPKDYTGEEVNAKNFLAAILGNKSAITGGSGKVVDSGPNDHIFIYYTDHGAAGVIGMPSKPYLYADELNDALKKKHASGTYKSLVFYLEACESGSMFEGILPEDLNIYALTSTNTTESSWCYYCPAQENPPPPEYNVCLGDLFSVAWLEDSDVQNSWYETLNQQYHHVDKRISHASHATQYGNLKLGEEGLFVYMGSNPANDNYTSLDGNALTPSSIVVNQRDAD
B2: acid-activated OaAEP1b-C247A (protein)
chain: MVRYLAGAVLLLVVLSVAAAVSGARDGDYLHLPSEVSRFFRPQETNDDHGEDSVGTRWAVLIAGSKGYANYRHQAGVCHAYQILKRGGLKDENIVVFMYDDIAYNESNPRPGVIINSPHGSDVYAGVPKDYTGEEVNAKNFLAAILGNKSAITGGSGKVVDSGPNDHIFIYYTDHGAAGVIGMPSKPYLYADELNDALKKKHASGTYKSLVFYLEACESGSMFEGILPEDLNIYALTSTNTTESSWAYYCPAQENPPPPEYNVCLGDLFSVAWLEDSDVQNSWYETLNQQYHHVDKRISHASHATQYGNLKLGEEGLFVYMGSNPANDNYTSLDGNALTPSSIVVNQRDADLLHLWEKFRKAPEGSARKEEAQTQIFKAMSHRVHIDSSIKLIGKLLFGIEKCTEILNAVRPAGQPLVDDWACLRSLVGTFETHCGSLSEYGMRHTRTIANICNAGISEEQMAEAASQACASIP
B3: acid-activated OaAEP1b-C247A: full-length OaAEP1b-C247A proenzyme expressed in E. coli and activated at low pH according to reference [17] (protein, listed as Oldenlandia affinis)
chain: B2 chain
modifications: acid-activated

Columns and labels:
OaAEP1b-C247A-Δ351 = test: Active site titration by FRET ligation assay with covalent inhibitor; assay type: biochemical, Oldenlandia affinis; conditions: enzyme 280 nM, 1 hour incubation
Procedure: Active site titration: The procedure described in reference was followed. The enzyme preparation was diluted to a concentration of 280 nM using a buffer containing 20 mM sodium phosphate at pH 6.5, 5 mM 2-Mercaptoethanol. Solutions containing serial twofold dilution of inhibitor YVAD-cmk were prepared in a black microtiter plate (Greiner Bio-One) using buffer as diluent. The enzyme was subsequently added to the wells containing the inhibitor to a final volume of 50 μL. The plate was incubated for 1 hour at room temperature before adding FRET peptides (PIE {EDANS} YNAL (SEQ ID NO:18) and GIK {DABSYL} SIP (SEQ ID NO: 19)), which were mixed at a molar ratio of 1:3 giving a final enzyme: substrate molar ratio of 1:200. The EDANS fluorescence signal was measured with an excitation wavelength of 336 nm and an emission wavelength of 490 nm. Relative fluorescence units (RFU) of quenched EDANS signal were plotted against time. The value of the initial velocity (Vi) was determined from the slope of the RFU (t) curve. The measured value of Vi was subsequently normalized by dividing with the initial rate obtained in the absence of inhibitor (control V0). The calculated Vi/V0 ratio was plotted against inhibitor concentrations, generating an inhibition curve. […]

[1] = target: OaAEP1b-C247A-Δ351 with His-tag and TEV cleavage sequence (construct for recombinant expression) (Oldenlandia affinis); test: cell-based or functional assay
[2] = target: mixture of FRET peptides A: PIE{EDANS}YNAL and B: GIK{DABSYL}SIP at a molar ratio of 1:3
[3] = system: peptides PIE {EDANS} YNAL and GIK {DABSYL} SIP; test: FRET ligation kinetics assay; assay type: biochemical; conditions: 50 nM enzyme, peptides A:B molar ratio 1:3
Procedure: Kinetics assay: The kinetic properties of the peptide ligation of the constitutively active PAL were studied using a FRET assay. Two peptides synthesized by GenScript: PIE {EDANS} YNAL (SEQ ID NO:18) and GIK {DABSYL} SIP (SEQ ID NO:19) were mixed at a molar ratio of 1:3. Upon ligation, the peptide PIE {EDANS} YNGIK {DABSYL} SIP (SEQ ID NO: 20) is produced. 50 nM of PAL enzyme is mixed with various concentrations of the peptide mixture. The EDANS fluorescence signal was measured with an excitation wavelength of 336 nm and an emission wavelength of 490 nm. A reduction in EDANS fluorescence signal occurs upon ligation of the two peptides due to quenching by DABSYL. The variation in fluorescence signal for each substrate mixture concentration was measured after addition of the enzyme to initiate the reaction. The rate of decrease in fluorescence signal during the first 30 seconds after enzyme addition was plotted against the substrate concentration to obtain the Vmax, kcat and KM values for each enzyme.
Next, using a FRET ligation assay, the ligase activity of the truncated OaAEP1b-C247A-Δ351 was compared with its acid-activated zymogen counterpart. Briefly, 50 nM of either enzyme was added to a mixture of two peptides A: PIE (EDANS) YNAL (SEQ ID NO:18) and B: GIK (DABSYL) SIP (SEQ ID NO:19). These two peptides were mixed in a A:B molar ratio of 1:3. Upon ligation, the fluorescence signal emission of the EDANS moiety of A (λem=490 nm) becomes quenched by the DABSYL moiety of B. (FIG. 7A). This assay the ligation rate to be followed between both peptides in real-time, giving access to the kinetic parameters of the truncated enzyme.

Row | Molecule | Km (FRET ligation assay) [2] | Vmax (FRET ligation assay) [2] | also measured
1 | ac-YVAD-cmk [reference compound] |  |  | minimal concentration of inhibitor necessary for a complete inhibition of the ligation activity (OaAEP1b-C247A-Δ351): 150 nM
2 | YVAD (N-terminal acetyl; C-terminal chloromethylketone (cmk)) [Ac-YVAD-cmk] |  |  | fraction of the measured protein concentration that is active and amenable to complete inhibition (active site titration) [1]: 53%; minimal concentration of inhibitor necessary for a complete inhibition of the ligation activity (active site titration, enzyme at 280 nM) [1]: 150 nM
3 | B1 | 8.16 µM | 6.40 RFU/see | 
4 | B2 | 8.34 µM | 14.32 RFU/see | 
5 | B3 |  |  | Vmax [3]: 14.32 RFU/see
